The text below walks through data of publication PMC11892609.

The labels stand for the following.
B1: WT mTMIE-HA-Avi [mouse] / Fyn-mTMC2-mCherry [mouse] (parent)
chain 1: QLVEPSTAPPKPKPPPLTKETVVFWDMRLWHVVGIFSLFVLSIIITLCCVFNCRVPRTRKEIEARYLQRKAAKMYTDKLETVPPLNELTEIPGEDKKKKKKDSVDTVAIKVEEDEKNEAKKKGEK
chain 2: MSPQLKSLDEEGDKSARRPTRKQTSRAACPQDGHRAQSSRKDPAKGSPRPGSSRKKQMEHGSYHKGLQGQKPRKVERSLQGRKKDRRTSLKEQRASPKKEREALRKEAGKQLRKPRSTSLGSSVSTGDSLSEEELAQILEQVEEKKKLITTVRNKPWPMAKKLRELREAQAFVEKYEGALGKGKGKHLYAYRMMMAKKWVKFKRDFDNFKTQCIPWEMKIKDIESHFGSSVASYFIFLRWMYGVNLVLFGLIFGLVIIPEVLMGMPYGSIPRKTVPRAEEERAMDFSVLWDFEGYIKYSALFYGYYNNQRTIGWLRYRLPMAYFMVGVSVFGYSLMIVIRSMASNTQGSTSEGDSDSFTFSFKMFTSWDYLIGNSETADNKYVSITTSFKESIVDEQESNKEGNIHLTRFLRVLANFLILCCLCGSGYLIYFVVKRSQEFSKMQNVSWYERNEVEIVMSLLGMFCPPLFETIAALENYHPRTGLKWQLGRIFALFLGNLYTFLLALMDDVHLKLSNEEKIKNITHWTLFNYYNSSGGNESVPRPPPHPADVPRGSCWETAVGIEFMRLTVSDMLVTYLTILVGDFLRACFVRFMNHCWCWDLEAGFPSYAEFDISGNVLGLIFNQGMIWMGSFYAPGLVGINVLRLLTSMYFQCWAVMSSNVPHERVFKASRSNNFYMGLLLLVLFLSLLPVAYTVMSLPPSFDCGPFSGKNRMYDVLHETIENDFPKFLGKIFAFLANPGLIIPAILLMFLAIYYLNSVSKSLSRANAQLRKKIQALREVEKNHKSIKGKAIVTYSEDTIKNSSKNATQIHLTKEEPTSHSSSQIQTLDKKAQGPHTSSTEGGASPSTSWHHVGSQPPRGRRDSGQPQSQTYTGRSPSGKRTQRPHN

In this assay the parent is B1. The assay can be described thus: pull-down with NeutrAvidin beads, western blot quantification. The note with it: PK-HEK293T cells co-expressing Fyn-mTMC2-mCherry and mTMIE-HA-Avi, three experiments, parent: 1, read off a plot. On the technique in general: A western blot detects proteins with antibodies after separation by electrophoresis.
Consider chain 1 C48S C49S, for which the ratio to parent came to 1.7.
